# The DeepSol protein solubility set
# Experiment: soluble on expression in E. coli; label from the status in PepcDB or PDB records
row,Sequence,soluble on expression in E. coli
1,MRKDVKIYLNHILESIELIEEYTKDKTEDDFFTSKFLQDAVIRRIEIIGEAIKNLPMEFREKYNHIPWKEFAEMRDILIRKYFGVDLGLTWEVVKKDIPKLKEEILKIMEELDKNKNNKYNVFAYGELMKKERLLELINRVPKMIEGRVYGYEKFFDETIGYYGARKKEGSYIDGIILLDITDKELGIFDDYEDLDVYYIREKTTAVSEDGRKYDVYIYLRK,soluble
2,MGLLDMIGPVMVGPSSSHTAGACRLALLARHLLGEKPKRVEFGLHGSFAKTGKGHGTHLALAAGVLGLTPDDERLKESLSLAEREGVEVVFKEVELGDVHPNTVRMVLEGEKERLAVTGSSLGGGLVRVFDVDGFEVRITGSAPTLVIKNVDTPGVVARVARILADDEVNIAYLTVSRKKRGGEAMMSIEVDRPLSEVPLRYLEHLSYILWVRQIPPVMG,soluble
3,MGSDKIHHHHHHMTQNLRVIIDARMVNKHLHGIARYTYEIIKHMSYEDNVEMILLVNDLEEASKIFGQFNNIKFKRMRSKFLSIFEQIELPMIVNKYKNMAIFHSPSFVASPFIKCKMIMTIHDLNHLKFPQYYTPFHKYYYKYIVKKCALKSKKILTVSEFSKEEIFKWIKCDRDKIKVTYNGIDPKFHVISDAEKLKKIKEKYKLPDRFILYIGNLKPHKNVETLVKAMRFIDGKVKLVINGTINKSISEILDKFNLLEKVKFIGYVNEDELPLLYNLASVFVFPSLYEGFGLPPLEAAVCGCKVIISDISSLSEIMSDYGVKVNPLDSKGMAREIKKILENSSIDICNKEKETFVQKYSWNKTSSKTLEIYKEINKEFL,not soluble
4,SNTPSAEADWSPGLELHPDYKTWGPEQVCSFLRRGGFEEPVLLKNIRENEITGALLPCLDESRFENLGVSSLGERKKLLSYIQRLVQIHVDTMKVI,soluble
5,MGSDKIHHHHHHMSSKVAKELADFLLQIEQRSQFHAGYPYNLSCDYSAIGKFFNHLLNNAGDPYIEPDFGLHSRKFEQEVLSFFAHLYKIPENQFWGYVTAGGTEGNLYGIFLAREIYPNGILYSSQDSHYSIPKAAKLFRIQHNVVNSQINGEMNYDHFEQLLSENRRYPAIINLNIGTTVKGAIDNLDKVLEILERNQIKDYYIHCDAALSGLILPFLDGAPQVNFQKPIDSVAISAKFIGSPLPCGVVLTKKKWVEKVETEIEYIGSKDTTILGSRNGHTPLILWYAVQTRGYDGLAKEAKTCIHNAQYLFQQLQIREYPCMLNNFSNTVVFQKPSQRLIKKWQLAVFENWAHMIVMQNIVREKIDIFINELLLEQGLLNNAKNFQLQPVLQH,not soluble
6,MQRVTITLDDDLLETLDSLSQRRGYNNRSEAIRDILRGALAQEATQEHGTQGFAVLSYVYEHEKRDLASRIVSTQHHHHDLSVATLHVHINHDDCLEIAVLKGDMGDVQHFADDVIAQRGVRHGHLQCLPKED,not soluble
7,PSKKNGRSGPQPHKRWVFTLNNPSEDERKKIRDLPISLFDYFIVGEEGNEEGRTPHLQGFANFVKKQTFNKVKWYLGARCHIEKAKGTDQQNKEYCSKEGNLLMECGAPRSQGQR,soluble
8,MRSYDFSPLYRATVGFDRIADLMDRVMTSEVAQPTYPPYNIEKTAENAYRISIAVAGFTPDELAVEVKENTLHVGARKAADEAERTYLHRGIATRAFERRFALADHVRVSGATHEHGMLHIDLVRETPEALKPRRIEIARGDLGGTRSIEAVKEPVEA,not soluble
9,MKNTFLYFRWEDLHGEIGVDSFNLLRASYSNLSEQQLVELIKELISIEREDIAAKFDIHLSENAPVFDERQHVVYKGVAGDMNYKDMLLSLVTALDLTNTLDHVQNILSLAKCLRSFDREIFARFAKDIAEEVYYSLKLEHHHHHH,soluble
10,MKREEIADLMAFVVVAEERSFTRAAARLSMVQSALSQIVRRIEERLGLRLLTRTTRSVVPTEAGEHLLSVLGPILHDIDSALTSLSDLQNRPSGTIRITTVEHAAKTILLPAMRTFLKSHPEIDIQLTIDYGLTDVVSERFDAGVLRCTGNSGYYHLFFF,not soluble
11,MSDETDWYGPEAATFGDRLAAAREASGMTQAQLARRLGVKKATINGWEDDLSEPRANRLSMLAGLLNVSIVWLITGEGQGGEALNETDETARDMAALLTELRSLRADLQASGQRAARLEKQLRQIMEHSA,not soluble
12,MGSDKIHHHHHHMKISETANKNHEELFPDHKSALKITDPELVEIFDNFAFDEVIQHGDLDTKTRLMVILGALIGSQTLSEYKVMLKGALNVGVTPIEVKEIVYQSVPYVGIAKAYDFINATNEILESRGVKLPLEGQSTTTPENRHEKGLEVQKSIFGEIIDKMYESSPKNQIHIQKYLSANCFGDYYTRTGLDIKTRELLTFCIILALGGCESQLKGHIVGNLNVGNDKKVLLDAVTQTLPYVGYPRTLNAIACLNEIIPE,not soluble
13,MSLSNIHHLERSLRKLRLTRVGAEWHALEKRALAEGWTPSRYLLTLCNEELLWRESEKLRRYKKEARLPVAKTLSEYDFSQVPELNGAQFRQLCETTDWVDAGENVLLFGASGLGKSHLAAAIVDGVVGQGYRARFYSAGELLQELRKARAQLKLNELLLKLDRYRVIVVDDLGYVKRDSAETGVLFELIAHRYERGSLVITSNHPFSMWGSIFVDETMAVAAADRLIHHGYMFELKGESYRKKTAKAVTSATEGHHHHHH,soluble
14,MSLNFYYATSILIKEVVVSTKWLLGISLMLSTVAQANENSNQDTDISIPSPWKHQVEFGYQAHSGNTESESLNSRLKSEYTMGRHRTYGEWKFYKLDKNGKEDKRQSTFAFQSDYKLGPKTYLYGSFYGTNSRYTAYFKDHTLSGGLGYQFAYTDEMVLELELGPGFRYQKPNLDEIDDDDIVFPDLVQEAIFRSNLKAEWQALNNLRFEAEMTMVSGRSNTSLDSNISLTNDITDHIALKIRQSRQYHNRMPEGLSKADSVISVNLLFEFEGHHHHHH,not soluble
15,MANVYDLANELERAVRALPEYQAVLTAKSAIESDADAQVLWQDFLATQSKVQEMMQSGQMPSQEEQDEMSKLGEKIESNDLLKVYFDQQQRLSVYMSDIEKIVFAPMQDLM,not soluble
16,MLMFDPVPVKQEAMDPVSVSYPSNYMESMKPNKYGVIYSTPLPEKFFQTPEGLSHGIQMEPVDLTVNKRSSPPSAGNSPSSLKFRSSHRRASPGLSMPSSSPPIKKYSPPSPGVQHFGVPLSMPPVMAAALSRHGIRSPGILPVIQPVVVQPVPFMYTSHLQQPLMVSLSEEMENSSSSMQVPVIESYEKPISQKKIKIEPGIEPQRTDYYPEEMSPPLMNSVSPPQALLQE,soluble
17,MTSSPPSFMSYEDRIQEGDTVIVYVTYGQMVPTIVKRGQTLMMKYGALRHEFIIGKRWGQRLSATAGYVYILRPTSDLWTRALPRRTQILYTADCAQILSLLDAKPGSVICESGTGSGSLSHAIALTVAPTGHLYTHDIDETRTHKVLEEFKVHGLGSVTTAVVRNVCTSGFHVENAADGVFLDVPAPWEAIPFAAKSIFRARGGRLVSFSPCLEQVQRACLAMAAAGFVSIETIELVPEQKKIVSQHRQTLEEFEELGDAYPKERKRNVDGTIVEQSSSAIPRITIAIVYPYSQPTHTGYLTHATMLPVAE,not soluble
18,MGSDKIHHHHHHMTIVSAFLLPGSPLPQLRPDITPWGRIREGLSRAGKALAESKPDCVLVYSTQWFAVLDQLWITRARSTGVHVDENWHEFGEQAFDIHSDCALAQRCVDACNAAGIKTRGVDYDQFPIDTGTITATTLMGFGSASLPVVIAANNLYHSAEQTEQLGAIASAALQDKRAAVLGIGGLSNSAFRENIDLEKDHILSEADDKWNQRVLALMESGDIEAIRAILPQYSTEARPDMGLKHFYWLLGAMNASFKKATVHEYAPLYGSGGAIVQFDVQ,not soluble
19,MSLKKAIAYMRFSSPGQMSGDSLNRQRRLIAEWLKVNSDYYLDTITYEDLGLSAFKGKHAQSGAFSEFLDAIEHGYILPGTTLLVESLDRLSREKVGEAIERLKLILNHGIDVITLCDNTVYNIDSLNEGHHHHHH,not soluble
20,MGSDKIHHHHHHMQAFDELLTVEQLSFSYEEDEKPVFQDISFELQKGECVLLLGPSGCGKSSLALCLNGLYPEACDGIQSGHVFLFQKPVTDAETSETITQHAGVVFQDPDQQFCMLTVEDEIAFGLENLQIPKEEMTEKINAVLGKLRITHLKEKMISTLSGGQKQKVALACILAMEPELIILDEPTSLLDPFSAREFVHLMKDLQREKGFSLLVIEHQLDEWAPWIERTIVLDKSGKKALDGLTKNLFQHEAETLKKLGIAIPKVCHLQEKLSMPFTLSKEMLFKEPIPAGHVKKKKAPSGESVLEVSSLSFARGQQAIFKDISFSLREGSLTALVGPNGTGKSTLLSVLASLMKPQSGKILLYDQPLQKYKEKELRKRMGFVFQNPEHQFVTDTVYDELLFGQKANAETEKKAQHLLQRFGLAHLADHHPFAISQGQKRRLSVATMLMHDVKVLLLDEPTFGQDARTAAECMEMIQRIKAEGTAVLMITQGYGASLFVC,not soluble
21,MRDPLCDESYLLKTIESNRKFISKRKEKIIGLKADIENGIQRYPRDNQSIIYITFSQMFMYGMNMLLAKYSLGNHPDTMIDDYLDNITYLENCGEEEAGYINLLWMVGLGILLEMDKEVLKRLARVIERQRIEDALMDFLLKACDIGWNHSTTKYEKKNPYEKTVEIIKIALHDKDKEAASKRLEKYMEKEWFKGHYDFGWRNAHKEPGYYGFWSFDTAALAKILGLDDSALKDNNHYPYDLAHYKNGMTFDLSWYSEPREEEVREETVVYGIPGNPLLERIIPGRFHSFVNEIINDYKTLPDEEFWKKYNLKEIWFDVEEYKEDNKDKNLLGTIIVFMLVDKDYILQLDYKEELIDYIENIHNYWPKEEVKLISFELDNDQQYYAYVPKDAEAGSLYEVKVTEVEKIEEV,not soluble
22,MARTDIRPIVKLRSTAGTGYTYTTRKNRRNDPDRLILRKYDPILRRHVDFREER,soluble
23,MGSDKIHHHHHHCWTYHYSEKPMNWENARKFCKQNYTDLVAIQNKREIEYLENTLPKSPYYYWIGIRKIGKMWTWVGTNKTLTKEAENWGAGEPNNKKSKEDCVEIYIKRERDSGKWNDDACHKRKAALCYTASCQPGSCNGRGECVETINNHTCICDAGYYGPQCQYVVQCEPLEAPELGTMDCIHPLGNFSFQSKCAFNCSEGRELLGTAETQCGASGNWSSPEPICQVVQCEPLEAPELGTMDCIHPLGNFSFQSKCAFNCSEGRELLGTAETQCGASGNWSSPEPICQETNRSFSKIKEGDYN,not soluble
24,MSLTTLKCVMQWTWRKTPERTIEVHKKNVNALKLLLIGSPGREQSYTPRDKRSNMHFLKKLGDFQDLEHTVDALKDWHTREKADAVLGLGDMLGLPGATTVRDERFQKKWHDIFIKDAGLDIPWLMTLGDADSVLSPSSQIRYHYSVQQKNWHMPNDYYTVNFKFGANLTLANGMFEETAFNATVIAINTWDLFVGNPVANNMASWTNKLWWLSEQLYQATQKNSSWIIVMGHHPMLSTGTEGEQARLQNIDDLSKSRRSRGLESFLINTLFMHYQVDAYVSGHDHLMEYNSITDVDRNVTVEGHHHHHH,not soluble
25,MKYMITSKGDEKSDLLRLNMIAGFGEYDMEYDDVEPEIVISIGGDGTFLSAFHQYEERLDEIAFIGIHTGHLGFYADWRPAEADKLVKLLAKGEYQKVSYPLLKTTVKYGIGKKEATYLALNESTVKSSGGPFVVDVVINDIHFERFRGDGLCMSTPSGTTAYNKSLGGALMHPSIEAMQLTEMASINNRVYRTIGSPLVFPKHHVVSLQPVNDKDFQISVDHLSILHRDVQEIRYEVSAKKIHFARFRSFPFWRRVHDSFIEDLEHHHHHH,soluble
